Measured values published in patent US20150018233A1 (FRED HUTCHINSON CANCER RESEARCH CENTER, published 2015).

T1: M2 muscarinic acetylcholine receptor (M2AchR), rat (rat, UniProt P10980 1-466)
T1 sequence (looked up): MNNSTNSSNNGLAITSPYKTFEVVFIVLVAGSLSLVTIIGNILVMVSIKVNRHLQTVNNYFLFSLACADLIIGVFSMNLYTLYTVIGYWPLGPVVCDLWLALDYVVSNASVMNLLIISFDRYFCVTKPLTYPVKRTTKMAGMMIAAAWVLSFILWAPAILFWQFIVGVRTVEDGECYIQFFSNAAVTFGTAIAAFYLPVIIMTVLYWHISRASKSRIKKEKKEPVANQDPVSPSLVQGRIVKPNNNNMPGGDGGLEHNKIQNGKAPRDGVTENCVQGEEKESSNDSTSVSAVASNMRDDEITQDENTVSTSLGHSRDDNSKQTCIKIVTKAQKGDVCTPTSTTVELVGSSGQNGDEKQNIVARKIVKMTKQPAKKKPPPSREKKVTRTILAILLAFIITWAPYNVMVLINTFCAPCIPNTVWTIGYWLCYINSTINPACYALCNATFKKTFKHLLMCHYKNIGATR

B1: Gαs-Gαi-13 (SEQ ID NO: 5) (other)
chain: MGCLGNSKTEDQRNEEKAQREANKKIEKQLQKDKQVYRATHRLLLLGAGESGKSTIVKQMRILHVNGFNGEGGEEDVPDYASNSDGEKATKVQDIKNNLKEAIETIVAAMSNLVPPVELANPENQFRVDYILSVMNVPNFDFPPEFYEHAKALWEDEGVRACYERSNEYQLIDCAQYFLDKIDVIKQADYVPSDQDLLRCRVLTSGIFETKFQVDKVNFHMFDVGGQRDERRKWIQCFNDVTAIIFVVASSSYNMVIREDNQTNRLQEALNLFKSIWNNRWLRTISVILFLNKQDLLAEKVLAGKSKIEDYFPEFARYTTPEDATPEPGEDPRVTRAKYFIRDEFLRISTASGDGRHYCYPHFTCAVDTENIRRVFNDCRDVIIKNNLKDCGLF
B2: Gαs-Gαz-13 (SEQ ID NO: 6) (other)
chain: MGCLGNSKTEDQRNEEKAQREANKKIEKQLQKDKQVYRATHRLLLLGAGESGKSTIVKQMRILHVNGFNGEGGEEDVPDYASNSDGEKATKVQDIKNNLKEAIETIVAAMSNLVPPVELANPENQFRVDYILSVMNVPNFDFPPEFYEHAKALWEDEGVRACYERSNEYQLIDCAQYFLDKIDVIKQADYVPSDQDLLRCRVLTSGIFETKFQVDKVNFHMFDVGGQRDERRKWIQCFNDVTAIIFVVASSSYNMVIREDNQTNRLQEALNLFKSIWNNRWLRTISVILFLNKQDLLAEKVLAGKSKIEDYFPEFARYTTPEDATPEPGEDPRVTRAKYFIRDEFLRISTASGDGRHYCYPHFTCAVDTENIRRVFNDCRDVIIQNNLKYIGLC
B3: Gαs-Gα15-13 (SEQ ID NO: 7) (other)
chain: MGCLGNSKTEDQRNEEKAQREANKKIEKQLQKDKQVYRATHRLLLLGAGESGKSTIVKQMRILHVNGFNGEGGEEDVPDYASNSDGEKATKVQDIKNNLKEAIETIVAAMSNLVPPVELANPENQFRVDYILSVMNVPNFDFPPEFYEHAKALWEDEGVRACYERSNEYQLIDCAQYFLDKIDVIKQADYVPSDQDLLRCRVLTSGIFETKFQVDKVNFHMFDVGGQRDERRKWIQCFNDVTAIIFVVASSSYNMVIREDNQTNRLQEALNLFKSIWNNRWLRTISVILFLNKQDLLAEKVLAGKSKIEDYFPEFARYTTPEDATPEPGEDPRVTRAKYFIRDEFLRISTASGDGRHYCYPHFTCAVDTENIRRVFNDCRDSVLARYLDEINLL

Assays:
[1] = target: T1, M2 muscarinic acetylcholine receptor …; assay: cell-based or functional assay
[2] = target: sweet receptor heterodimer (T1 R2/T1 R3); assay: cell-based or functional assay

Binder | increase in SEAP activity in response to 10 uM acetylcholine (CRE-SEAP reporter, HEK-293) [1] | increase in SEAP activity, cells transiently expressing the chimera (10 uM acetylcholine) [1] | increase in SEAP activity (5 mM saccharin) [2] | increase in SEAP activity in response to the 10 uM acetylcholine ligand [1]
B1 | 10 fold | ~10 fold | ~2 fold | 
B2 |  |  |  | ~2 fold
B3 |  |  |  | ~2 fold
